This series in a line: yeast display, Sf9 membrane polyspecificity reagent, FACS + sequencing; frameworks hold sequencing errors. The essentials: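 Synthetic nanobody libraries on Saccharomyces cerevisiae BJ5465 were galactose-induced for 36–48 hours, stained 1 hour at 4 °C with 10% biotinylated, detergent-solubilized Sf9 membrane reagent and enriched on streptavidin microbeads. FACS then separated cells into low and high (top ~1%) gates by anti-HA (expression) and streptavidin (reagent binding) fluorescence. Genes were colony-PCR amplified, MiSeq 2 × 250 sequenced and CDR-length filtered. A clone's polyreactivity label is that of its gate of origin.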
“QVQLVESGGGLVQAGGILRFSCAASGSTFGLNAMGWYRQAPGQERELVAAISWSGGTTYYADSVKGRFTISRDNAKNTVYLQMNSLTPEDTAVYYCAADVYSSWGYYEVYYWGQGTQVTVSS”: the “polyreactivity (PSR sort gate)” value is recorded as “high polyreactivity”.

For “QVQLVESGGGLVQAGGILRISCAASGFIFYPYAMGWYRQAPGKERELVATIDGGGSTYYADSVKGRFTISRDNAKNTVYLQMNSLKPEDSAVYYCDASQWSNYDNWGQGNQVTVSS”, the “polyreactivity (PSR sort gate)” value is “low polyreactivity”. With “QVQLVESGGGLVQAGGILRISCAASGSISSYYAMGWYRPAPGKERELVAAITSGGRTYFADSVKGRFTISRDNAKNTVYFQMNSLKQEDTAVYYCNARTARNPIKGRASDYWGQGTQVTVSS” the entry was “high polyreactivity”. In the case of “QVQLVESGGGLVQAGGILRLGCAASGSTFAWNAMGWYRPAPGKERELVATISRSGSTNYADSVKGRFTISRDNAKNTVYLQMNCLKPEVTAVYYCARDKRYYRQYYYHTRYYYWGQGTQVTVSS”, the “polyreactivity (PSR sort gate)” value is on record as “high polyreactivity”. Next, “QVQLVESGGGLVQAGGILRLICAASGRIFKLNALGWYRQAPGKERELDAAITFSGGSTYYADSVKGRFRISRDNVNYTVYLQMNSMKPEYTGVYYCNAEFSNVELYYWGQGTHVTVSS”: “low polyreactivity”; “QVQLVESGGGLVQAGGILRLSCAASGFIFQFNAMGWYRQAPGKEMEMDASISVSGGSTYYADSVKGRFTISRDNAKNTVYLQMNSLKPEDTAVYYCAATQRRYTYGHDYWGQGTQVTVSS”: “low polyreactivity”.

As to “QVQLVESGGGLVQAGGILRLSCAASGFTFGWNAMGWYRQAPGKERELVAAITSGGITNYADSVKGRFTISRDNAKNTVYLQMNSLKPEDTAVYYCNARPTSRRSWYYWKGYDYWGQGTQVTVSS”, the “polyreactivity (PSR sort gate)” value is on record as “high polyreactivity”. With “QVQLVESGGGLVQAGGILRLSCAASGFTFNRNAMGWYRQAPGKERELVAAISWSGTSTYYADSVKGRFTISRDNAKTTVYLQMNSLKPEDTAVYYCAARVKGQWNTYDSWGQGTQVTVST” the entry was “high polyreactivity”; with “QVQLVESGGGLVQAGGILRLSCAASGIIFSQYTMGWYRQAPGKESELVAAISYTGGRTYYADSVKGRFTISRDNAMNTVYLQMNSLKPEDTAVYYCAADFPIVWYEEYYWGQGTQVTVSS”, “high polyreactivity”.

With “QVQLVESGGGLVQAGGILRLSCAASGITFGRNAMGWYRQAPGKERELVAAITISGGGTYYADSVKGRFTISRDNAKNTVYLQMNSLKPEDTAVYYCAADRSTVWVHYPHAGGSWGHGTQVTVSS”, the “polyreactivity (PSR sort gate)” value is reported as “high polyreactivity”.

Turning to “QVQLVESGGGLVQAGGILRLSCAASGLIFYYYAMGWYRQAPGKERELVAAIRTNYADSVKGRFTISRDNAKNTVYLQMNSLKPEDTAVYYCAAESSHSPTSAFDYWGQGTQVTVSS”, the “polyreactivity (PSR sort gate)” value is given as “low polyreactivity”. Turning to “QVQLVESGGGLVQAGGILRLSCAASGLTFRDYAMGWYRQAPGKERELVAAISWNGSSTNYADSVKGRFTISRDNAKNTVYLQMNSLKPEDTSVYYCNAYYYYRRPLEGGYWGQGTQVTVSS”, the “polyreactivity (PSR sort gate)” value was “low polyreactivity”. With “QVQLVESGGGLVQAGGILRLSCAASGRIFRPNAMGWYRQAPGKERELVAAISSGGSTYYADSVKGRFTLSRDNAKNSVYLQMNSLKPEDSAVYYCNAKASFWSPYDYWGQGTQVTVSS” the entry was “high polyreactivity”. “QVQLVESGGGLVQAGGILRLSCAASGRILPSNAMGWYRQAPGKERELVAGITSGGSTDYADSVKGRFTISRDNAKNTVYLQMNSLKQEDTAVYYCNKPFPYYPDGPNGYDYWGLGTQVTVSS”: the “polyreactivity (PSR sort gate)” value is “low polyreactivity”. “QVQLVESGGGLVQAGGILRLSCAASGRIYEIYAMGWYRQAPGKDRELVAAISWRGVSTYYADSVKGPFTISRDNAKNNVYLQMNSLKPEDTAVYYCNKDVDYFWYVEYDYWGQGTQVTVSS”: the “polyreactivity (PSR sort gate)” value is on record as “low polyreactivity”. Next, “QVQLVESGGGLVQAGGILRLSCAASGRTFFVYAMGWYRPAPGTEWEGVAAISNTGGRTYYADSVKGRFTISRDYAKNTVYFQMNSLKPEDTAVYYCAAPYSGPYRSYEYYWGQGTHVTVSS”: “low polyreactivity”. With “QVQLVESGGGLVQAGGILRLSCAASGRTFGWNAMGWYRQAPGKERELVAAISWSGTNTYYADSVKGRFTISRDNAKNTVYLQMNCLNPEDTAVYYCAARDWTGSWNGYWYWEYNYWGQGTQVTVSS” the entry was “low polyreactivity”; with “QVQLVESGGGLVQAGGILRLSCAASGRTFSVNAMGWYRQAPGKERELVAAITRRGGSTYYADSVKGRFTISRDYAKNTVYLQMKSLKPEDTAVYYCAAEFVTYYSSSKRAYYYWGQGTQVTVSS”, “high polyreactivity”; with “QVQLVESGGGLVQAGGILRLSCAASGSIFNYYAMGWYRQAPGKEREMVAAITTSGGRTYYADSVKGRFTISRDNAKNTVYLQMNSLKPEDTAVYYCAARGYGRRAYVYRYDYWGQGTQVTVSS”, “high polyreactivity”. As for “QVQLVESGGGLVQAGGILRLSCAASGSIFSPNAKGWYRQAPGKVRQLVAAIDFSAGSTYYADSVKGRFTISRDNAKNTVYLQMHSLKPEDTAVYYCAADYYYSYCYWFSSSYGYWGPGTQVTVSS”, the “polyreactivity (PSR sort gate)” value was “high polyreactivity”.

With “QVQLVESGGGLVQAGGILRLSCAASGSIFVNNAMGLYRQAPGKERELVAAITSGTRTNYADSVKGRFTISRDNAKNTVYLQMNSLKPEDTAVYYCAAVKYRYAYVPPRFDYWGQGTQVTVSS”, the “polyreactivity (PSR sort gate)” value is reported as “low polyreactivity”. Next, “QVQLVESGGGLVQAGGILRLSCAASGSIFYAYAMGWYRQAPGKERELVASITWSGASTYYADSVKGRFTISRDNAKNTVYLQMNSLKPEDTAVYYCAATDQKLSLDYSSYEYWGQGTQVTVSS”: “low polyreactivity”. For “QVQLVESGGGLVQAGGILRLSCAASGSIFYRYAMGWYRPAPGKERELVAAINWSGGITYYADSEKGRFTISRDNAKITFYLQMISLKPEDTAVYYCAARTHVYNWGYYYWGQGTQVTVSS”, the “polyreactivity (PSR sort gate)” value is recorded as “high polyreactivity”.

With “QVQLVESGGGLVQAGGILRLSCAASGSKIGYYAMVWYRQAPGKERELVAAISAGDRTYYADSVKGRFTISRDNAKNTVYLQMNSLKPEDTAVYYCAAASYYQSYRYGYWGQGTQVTVSS”, the “polyreactivity (PSR sort gate)” value is “high polyreactivity”. Consider “QVQLVESGGGLVQAGGILRLSCAASGSTFARYAMGWYRQEPGKERELVAVIRSGGSTNYADSVKGRFTISRDNAKNTVYLQMNSLKPEDTAGAADQWTIHRWATYGYWGQGTQVTVSS”, for which the “polyreactivity (PSR sort gate)” value is “low polyreactivity”. For the sequence “QVQLVESGGGLVQAGGILRLSCAASGSTFAVNAMGWYRQAPGKERELVAAISTSGGSTYYADSVKGRFTISRDNAKNTVYLQMNSLKPEDTSVYDCAAGRVRRRVWYNYWGQGTQVTVSS”, the “polyreactivity (PSR sort gate)” value was “high polyreactivity”.

Turning to “QVQLVESGGGLVQAGGILRLSCAASGSTFAVYAMGWYRQAPGKERELVAAISRSGGRTYYADSVKGRFTISRDNAKNTVYLQMNCLKPDDTAVYYCAAPSTCSYGSDYWGPGTQVTVSS”, the “polyreactivity (PSR sort gate)” value is “high polyreactivity”.

Turning to “QVQLVESGGGLVQAGGILRLSCAASGSTFGDYTMGWYRHAPGKERELVAAITLTGGSTFYSDSVKGRFTISRDNAKNTVYLQMNSLKPVDTAVYYCNTDVIRWVGGTWHRYYYWGQGTQVTVSS”, the “polyreactivity (PSR sort gate)” value was “low polyreactivity”.

Take “QVQLVESGGGLVQAGGILRLSCAASGSTFGYNAMGWYRQAPGKERELVAAIRFSGGSTFYADSVKGRFTISRDNAKNTVYLQMNSLKPEDTAVYNCAAGSAYYSQRYFAYGYDSWGQGTQVTVSS”: the “polyreactivity (PSR sort gate)” value is reported as “low polyreactivity”. With “QVQLVESGGGLVQAGGILRLSCAASGSTFVGYAMGWNRQAPGKERELVAAISRTGASTYYADSVKGRFTISRDNAKNTVFLQMNSLKPEDTEVYYCAYYYSIYDYWGQGTLVTVSS” the entry was “high polyreactivity”.
